This is an account of results in publication PMC6092944.

For the first assay, the target named is His6-MBP-PadeB1. The assay can be described thus: fluorescence polarisation.
With PadeA(−19 to −7) peptide, the Ki was 119 nM.

“Fl-PadeA (PadeA labelled with fluorescein-5-maleimide) (peptide)”: the Kd was 69 nM.

The target of a further assay is His6-MBP-PadeB1. The assay can be described thus: fluorescence polarisation. The source holds these as a separate data set.
As for PadeA variant Y–15A (peptide), the Ki is 1180 nM. That is a single-digit micromolar value.

PadeA variant P–12A/Y–15A (peptide) gave a Ki of 1340 nM.

As to PadeA precursor peptide, wild type (WT), the Ki came out at 137 nM.

As to PadeA(−19 to −7) peptide, the Ki amounted to 120 nM.

For the substance PadeA variant A1G (peptide), the Ki worked out at 127 nM.

On to PadeA variant T–2A (peptide), for which the Ki is 152 nM. This Ki and that of the substance before are within 1.5-fold of each other.

Take PadeA variant P–12A (peptide): the Ki stood at 476 nM. This Ki is about 3.1-fold higher than that of the substance before.
